EP4792821A2 (Beijing Youcare Kechuang Pharmaceutical Technology Co., Ltd., dated 2026)
*1 amine or outer side, *2 acyl side, *3 side chain or, on linkers, in order; H or OH if unused. Side-chain parts run from the residue outwards. The star is where a group is joined. Succinyl(4-O-cholesteryl) = CC(C)CCC[C@@H](C)[C@H]1CC[C@H]2[C@@H]3CC=C4C[C@@H](OC(=O)CCC(=O)*)CC[C@]4(C)[C@H]3CC[C@]12C; Suc = O=C(CCC(=O)[*:2])[*:1]

B1: Compound 44 (peptide)
peptide: Ac-WDEFDKKIEEVNKKIEESLKKIEESDKKLHNVEAAAKK(Succinyl(4-O-cholesteryl))-NH2
SMILES: CC[C@H](C)[C@H](NC(=O)[C@H](CCCCN)NC(=O)[C@H](CCCCN)NC(=O)[C@H](CC(C)C)NC(=O)[C@H](CO)NC(=O)[C@H](CCC(=O)O)NC(=O)[C@H](CCC(=O)O)NC(=O)[C@@H](NC(=O)[C@H](CCCCN)NC(=O)[C@H](CCCCN)NC(=O)[C@H](CC(N)=O)NC(=O)[C@@H](NC(=O)[C@H](CCC(=O)O)NC(=O)[C@H](CCC(=O)O)NC(=O)[C@@H](NC(=O)[C@H](CCCCN)NC(=O)[C@H](CCCCN)NC(=O)[C@H](CC(=O)O)NC(=O)[C@H](Cc1ccccc1)NC(=O)[C@H](CCC(=O)O)NC(=O)[C@H](CC(=O)O)NC(=O)[C@H](Cc1c[nH]c2ccccc12)NC(C)=O)[C@@H](C)CC)C(C)C)[C@@H](C)CC)C(=O)N[C@@H](CCC(=O)O)C(=O)N[C@@H](CCC(=O)O)C(=O)N[C@@H](CO)C(=O)N[C@@H](CC(=O)O)C(=O)N[C@@H](CCCCN)C(=O)N[C@@H](CCCCN)C(=O)N[C@@H](CC(C)C)C(=O)N[C@@H](Cc1c[nH]cn1)C(=O)N[C@@H](CC(N)=O)C(=O)N[C@H](C(=O)N[C@@H](CCC(=O)O)C(=O)N[C@@H](C)C(=O)N[C@@H](C)C(=O)N[C@@H](C)C(=O)N[C@@H](CCCCN)C(=O)N[C@@H](CCCCNC(=O)CCC(=O)O[C@H]1CC[C@@]2(C)C(=CC[C@H]3[C@@H]4CC[C@H]([C@H](C)CCCC(C)C)[C@@]4(C)CC[C@@H]32)C1)C(N)=O)C(C)C
B2: Compound 45 (peptide)
peptide: Ac-WDEFDASISQVNEKINQSLEEIRKSDELLHNEAAAKK(Succinyl(4-O-cholesteryl))-NH2
SMILES: CC[C@H](C)[C@H](NC(=O)[C@H](CO)NC(=O)[C@H](C)NC(=O)[C@H](CC(=O)O)NC(=O)[C@H](Cc1ccccc1)NC(=O)[C@H](CCC(=O)O)NC(=O)[C@H](CC(=O)O)NC(=O)[C@H](Cc1c[nH]c2ccccc12)NC(C)=O)C(=O)N[C@@H](CO)C(=O)N[C@@H](CCC(N)=O)C(=O)N[C@H](C(=O)N[C@@H](CC(N)=O)C(=O)N[C@@H](CCC(=O)O)C(=O)N[C@@H](CCCCN)C(=O)N[C@H](C(=O)N[C@@H](CC(N)=O)C(=O)N[C@@H](CCC(N)=O)C(=O)N[C@@H](CO)C(=O)N[C@@H](CC(C)C)C(=O)N[C@@H](CCC(=O)O)C(=O)N[C@@H](CCC(=O)O)C(=O)N[C@H](C(=O)N[C@@H](CCCNC(=N)N)C(=O)N[C@@H](CCCCN)C(=O)N[C@@H](CO)C(=O)N[C@@H](CC(=O)O)C(=O)N[C@@H](CCC(=O)O)C(=O)N[C@@H](CC(C)C)C(=O)N[C@@H](CC(C)C)C(=O)N[C@@H](Cc1c[nH]cn1)C(=O)N[C@@H](CC(N)=O)C(=O)N[C@@H](CCC(=O)O)C(=O)N[C@@H](C)C(=O)N[C@@H](C)C(=O)N[C@@H](C)C(=O)N[C@@H](CCCCN)C(=O)N[C@@H](CCCCNC(=O)CCC(=O)O[C@H]1CC[C@@]2(C)C(=CC[C@H]3[C@@H]4CC[C@H]([C@H](C)CCCC(C)C)[C@@]4(C)CC[C@@H]32)C1)C(N)=O)[C@@H](C)CC)[C@@H](C)CC)C(C)C

How the values were obtained:
Assay in all cases: cell-based or functional assay
[1] = biological target: F protein of RSV A long virus strain (Respiratory Syncytial Virus (RSV) A …, UniProt P12568 26-574)
Sequence of F protein of RSV A long virus strain (P12568 26-574): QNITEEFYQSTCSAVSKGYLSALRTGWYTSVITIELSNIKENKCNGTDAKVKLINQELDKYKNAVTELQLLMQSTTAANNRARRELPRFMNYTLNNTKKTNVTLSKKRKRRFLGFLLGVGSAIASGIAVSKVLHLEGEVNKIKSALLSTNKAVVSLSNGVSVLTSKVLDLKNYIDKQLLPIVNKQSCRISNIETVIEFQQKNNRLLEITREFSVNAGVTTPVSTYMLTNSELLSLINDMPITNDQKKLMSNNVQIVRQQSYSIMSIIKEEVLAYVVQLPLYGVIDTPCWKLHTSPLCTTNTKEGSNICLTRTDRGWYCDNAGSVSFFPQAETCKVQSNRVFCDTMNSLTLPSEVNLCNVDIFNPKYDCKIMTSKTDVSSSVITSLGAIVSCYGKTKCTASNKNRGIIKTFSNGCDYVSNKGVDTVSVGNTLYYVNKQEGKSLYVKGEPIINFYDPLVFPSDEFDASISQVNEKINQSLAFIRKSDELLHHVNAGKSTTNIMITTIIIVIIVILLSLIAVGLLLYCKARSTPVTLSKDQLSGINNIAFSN

[2] = biological target: F protein of hMPV virus strain B1 (human metapneumovirus (hMPV) B1)
[3] = biological target: F protein of hMPV virus strain A2 (human metapneumovirus (hMPV) A2)
[4] = biological target: F protein of hPIV Type 3 (hPIV3 C243) (human Parainfluenza Virus type 3 (hPIV3 …))

| Binder | IC50/nM, plaque reduction, RSV A long on HEp-2 cells (Table 2, Cell fusion inhibition activity) [1] | EC50 (nM), plaque reduction, hMPV B1 on Vero cells [2] | EC50 (nM), plaque reduction, hMPV A2 on Vero cells [3] | EC50 (nM), plaque reduction, hPIV3 C243 on LLC-MK2 cells [4] |
| --- | --- | --- | --- | --- |
| B1 | 12.4 nM | 6.6 nM | 14.6 nM | 27.9 nM |
| B2 | 12.2 nM | 13.1 nM | 200 nM | 36.3 nM |
| Ac-SLEQVNEKINQSLAFIRKSDEINQSDEEVNKSDELLEAAAKK-NH2 [Compound 50] | 15.1 nM | 5.95 nM | 13.3 nM | 34.8 nM |
| Ac-SDELVNKKIEFDKKINQSLKKIEESDKKKLEAAAKK-NH2 [Compound 51] | 9.9 nM | 3.82 nM | 18.8 nM | 18.8 nM |
| Ac-WDEFDKKIEEVNKKIEESLKKIEESDKKLEAAAKK([Suc-Succinyl(4-O-cholesteryl)])-NH2 [Compound 13] | 13 nM | 6.18 nM | 11.7 nM | 35.6 nM |
| Ac-DEFDKKIEEVNKKIEESLKKIEESDKKLEEVNEAAAKK([Suc-Succinyl(4-O-cholesteryl)])-NH2 [Compound 14] | 9.9 nM | 5.36 nM | 18.9 nM | 31.4 nM |
| Ac-DEFDKKKIEEVNKKIEESLKKIEESDKKLEEVGSGSGK([Suc-Succinyl(4-O-cholesteryl)])-NH2 [Compound 15] | 10.4 nM |  | 17.9 nM | 20.7 nM |
| Ac-SDEFDKKIEEVNKKIEESLKKIEESDKKLEAAAKK([Suc-Succinyl(4-O-cholesteryl)])-NH2 [Compound 16] | 10.3 nM | 4.5 nM | 7.35 nM | 59 nM |
| Ac-DEFDKKIEEVNKKIEESLKKIEESDKKLEAAAKK(Succinyl(4-O-cholesteryl))-NH2 [Compound 17] | 17.6 nM | 3.61 nM | 8.78 nM | 52.6 nM |
| Ac-DEFDKKKIEEVNKKIEESLKKIEESDKKLEEVGSGSGK([Suc-Succinyl(4-O-cholesteryl)])-NH2 [Compound 18] | 19.2 nM |  | 35.9 nM | 50.5 nM |
| Ac-SDEFDKKIEEVNKKIEESLKKIEESDKKLGSGSGK([Suc-Succinyl(4-O-cholesteryl)])-NH2 [Compound 20] | 19.8 nM | 4.27 nM | 7.47 nM | 59.5 nM |
| Ac-DEFDKKIEEVNKKIEESLKKIEESDKKLEEVEAAAKK([Suc-Succinyl(4-O-cholesteryl)])-NH2 [Compound 21] | 14.6 nM | 4.92 nM | 11.2 nM | 21.3 nM |
| Ac-DEFDKKKIEEVNKKIEESLKKIEESDKKLEEVEAAAKK([Suc-Succinyl(4-O-cholesteryl)])-NH2 [Compound 22] | 11.3 nM | 18 nM | 88.4 nM | 65.4 nM |
| Ac-YDELVFDASQVNEKINQSLEKIRKSDELLHNVGSGSGK([Suc-Succinyl(4-O-cholesteryl)])-NH2 [Compound 25] | 28.7 nM | 38.1 nM | 86.4 nM | 29.4 nM |
| Ac-FDEEISQVNEKINQSLAFIRKSDELLHNVNAGKSTTEAAAKK([Suc-Succinyl(4-O-cholesteryl)])-NH2 [Compound 26] | 12.8 nM | 2.85 nM | 103 nM | 1.35 nM |
| Ac-WDEFDASISQVNEKINQSLEEIRKSDELLHNVNAGLGSGSGK([Suc-Succinyl(4-O-cholesteryl)])-NH2 [Compound 27] | 25.7 nM | 10.5 nM | 78.3 nM | 27.2 nM |
| Ac-ADAFRLEVNDASSKINESIEESLLSLEKLHNVNATA-NH2 [Compound 6] | > 8000 nM |  |  |  |
| Ac-FDAFIQEINVNEDQSLEQSDELLLELHLLHSLLH-NH2 [Compound 7] | > 8000 nM |  |  |  |
| Ac-FAEFNQKINQVNEKIEESLEEIRKSDEELHNVNATT-NH2 [Compound 8] | 3770 nM |  |  |  |
| Ac-WDEFDKKIEEVNKKIEESLKKIEESDKKLEEVNKKLEAAAKK(Succinyl(4-O-cholesteryl))-NH2 [Compound 9] | 95.7 nM |  |  |  |
